These results are taken from article PMC9313131.

Assay [1] has as its target CDC37 (cell division cycle 37), wild type, full-length (human) (UniProt Q16543). The assay is described as follows: ITC; in most cases sBRAF construct at 350 μM injected into 30 μM CDC37 at 20 °C; 20 mM Tris pH 7.5, 1 mM EDTA, 200 mM NaCl; ITC200. (In general: ITC needs no label: the signal is the heat of the interaction.)
Another assay concerns the target sBRAF L597R (human) (UniProt P15056). The assay is described as follows: SEC; Superdex 200 Increase 10/300 GL; 50 mM HEPES pH 7.5, 300 mM NaCl, 0.5 mM TCEP, 1 mM EDTA; relative molecular mass against gel-filtration standards. In general terms: In gel filtration, larger molecules generally elute earlier.

CDC37 (cell division cycle 37), wild type, full-length (human), sequence (Q16543 whole entry): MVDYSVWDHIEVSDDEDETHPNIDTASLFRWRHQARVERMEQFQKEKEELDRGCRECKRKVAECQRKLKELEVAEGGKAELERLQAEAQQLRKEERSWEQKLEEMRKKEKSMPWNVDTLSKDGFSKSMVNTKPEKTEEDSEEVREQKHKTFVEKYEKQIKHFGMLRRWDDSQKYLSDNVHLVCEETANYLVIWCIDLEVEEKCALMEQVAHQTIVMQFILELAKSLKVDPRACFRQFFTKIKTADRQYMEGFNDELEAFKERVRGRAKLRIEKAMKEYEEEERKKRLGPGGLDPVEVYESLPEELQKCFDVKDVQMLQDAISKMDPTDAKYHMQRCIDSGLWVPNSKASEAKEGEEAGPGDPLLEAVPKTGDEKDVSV

Broadly, the Kd is a measure of binding affinity in units of concentration. Higher therefore signals lower affinity. On to “sBRAF F595A (from UniProt P15056 423-723) (domain or fragment)”, for which the Kd in assay [1] was 500 nM. As a reminder, the stoichiometry N is a count of units in the complex or per binding partner. In the assay with sBRAF L597R (human), “sBRAF L597R (from UniProt P15056 423-723) (domain or fragment)” registered a stoichiometry N of 2.

Take “sBRAF L597A (from UniProt P15056 423-723) (domain or fragment)”: the Kd in assay [1] was determined as 230 nM. Regarding “sBRAF T599W-V600E (from UniProt P15056 423-723) (domain or fragment)”, the dissociation constant (Kd) in assay [1] came to 230 nM.

As to “sBRAF D594V (from UniProt P15056 423-723) (domain or fragment)”, the Kd in assay [1] amounted to 1200 nM. As to “sBRAF L597R-V600E (from UniProt P15056 423-723) (domain or fragment)”, the Kd in assay [1] came to 340 nM. The same measure, in the same setting: with “sBRAF T599E-V600E-S602D (from UniProt P15056 423-723) (domain or fragment)” the figure was 470 nM.

In assay [1], “sBRAF, solubilized version of BRAF kinase domain (residues 423-723), V600 background (from UniProt P15056 423-723) (domain or fragment)” had a dissociation constant Kd of 1000 nM.

For “sBRAF F595V (from UniProt P15056 423-723) (domain or fragment)”, the Kd in assay [1] was found to be 1400 nM.
